Source: paper PMC5113203

Target: human lysyl-tRNA synthetase anticodon-binding domain (hLysRS ACB) (Homo sapiens, UniProt Q15046 91-216)
Test: fluorescence anisotropy

Chain of human lysyl-tRNA synthetase anticodon-binding domain (hLysRS ACB) (Q15046 91-216): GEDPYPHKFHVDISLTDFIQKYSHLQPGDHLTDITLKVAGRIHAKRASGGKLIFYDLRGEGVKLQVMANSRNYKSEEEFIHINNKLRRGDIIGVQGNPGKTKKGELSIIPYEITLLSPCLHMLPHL

Binder: CCCCCCCCC (ssRNA) [C9]
- binding signal: ~100 fold lower affinity than U9
